This note sets out measurements from US8852954.

pKd: −log10 of the molar value.

The data set concerns the target mouse IgG1 (subtype 1 IgG antibody) (Mus musculus) (UniProt P01868). As to the kind of experiment: SPR. The settings on record: RNA with 5'-dA5 (1-5).

Broadly, the pKd is −log10 of the Kd, conventionally taken in molar units. High values mean a low Kd, low ones a high Kd. Turning to “AAAAACGCUGAAGAGAAGACGGAAGGAGACGAAGCGT [MIG-m034]”, the negative-log Kd (pKd) is above 12.00 (LNA at C6 G7 C35 G36, 3'-dT37, BIACORE 3000, 1:1 Langmuir) and 9.20 (LNA at C6 G7 C35 G36, 3'-dT37, second measurement (Example 3), differs from Table 2).
For the sequence “AAAAACGCUGAAGAGAAGACGGAAGGAGACGAAGCGT [MIG-m042]”, the pKd (LNA at C6 G7 C35 G36, 2'-OMe U9, 3'-dT37, BIACORE 3000, 1:1 Langmuir) was above 12.00.
Where the note is “DNA at G6 C7 G37 C38, BIACORE 3000, 1:1 Langmuir”, “AAAAAGCGCUGAAGAGAAGACGGAAGGAGACGAAGCGC [MIG-m036]” showed a pKd of 8.26.
As to “AAAAAGCGCUGAAGAGAAGACGGAAGGAGACGAAGCGC [MIG-m037]”, the pKd (DNA at 6-9 and 35-38, BIACORE 3000, 1:1 Langmuir) was 8.77.
Turning to “AAAAAGCGCUGAAGAGAAGACGGAAGGAGACGAAGCGC [MIG-m040]”, the pKd (2'-OMe U10, BIACORE 3000, 1:1 Langmuir) is 9.39.
Turning to “AAAAAGCGCUGAAGAGAAGACGGAAGGAGACGAAGCGC [MIG-m041]”, the pKd (DNA at 6-9 and 35-38, 2'-OMe U10, BIACORE 3000, 1:1 Langmuir) is above 12.00.
For the sequence “AAAAAGCUGAAGAGAAGACGGAAGGAGACGAAGCT [MIG-m035]”, the pKd (LNA at G6 C7 G33 C34, 3'-dT35, BIACORE 3000, 1:1 Langmuir) is above 12.00.
